Tests used:
[1] = tested on: experimentelle Tumoren und Xenotransplantate; assay: Concentration of the radiolabelled agents in experimental tumours and human xenografts; format: in vivo, Ratte; Nacktmaus; conditions: 300 µC = 11,1 MBq administered; all tumour models tested (Beispiel 2 compound only in Walker Carcinosarcom, Osteosarcom, Ovarialcarcinom O-342)
Description: Die Konzentrierung dieser Mittel wurde an folgenden experimentellen Tumoren und an folgenden Tiermodellen geprüft:
Alle diese experimentellen Tumoren und Xenotransplantate wurden mit den Verbindungen a und c gemäß Beispiel 1 (also 1a und 1c) und drei davon, nämlich das Walker Carcinosarcom, das Osteosarcom und das Ovarialcarcinom (O-342) auch mit dem Diphosphat gemäß Beispiel 2 untersucht.
(§1) Bei allen diesen Anwendungsversuchen wurden immer 300 µC = 11,1 MBq verabreicht Es zeigten sich mit den eingesetzten Mitteln, nämlich 1a und 1c und die Verbindung aus Beispiel 2 eine Konzentration von mindestens 30% des Mittels an der gewünschten Stelle, also am Tumor. Die beigefügte Fig. 4 zeigt das Bild einer BDIX-Ratte mit Ovarialcarcinom 42 h nach Injektion, die mit ^131J-HOPAD-CMPEG, also ^131J-Hydroxyphenyl-1-aminome-than-1,1-diphosphonat-Cyanurchlorid aktiviertes Polyethylenglykol (n=ca. 100 bis 110) in einer Menge von 300 µC behandelt war. Das Bild zeigt, daß ganz unten, im Tumor ca. 30+/-2% des Mittels konzentriert sind, während in der Mitte die Leber ca. 10% zeigt und die Schilddrüse, die oberhalb der Leber sichtbar ist, weit weniger als 2% des Mittels aufgenommen hat Diese %-Angaben beziehen sich auf die Gesamtmenge an die mit radiojodmarkierten Mittel im Gesamtkörper der Ratte.

Ovarialcarcinom = assay: Whole-body distribution of radioiodine activity in tumour-bearing rat (Fig. 4, Fig. 5); format: in vivo, BDIX-Ratte
Experimental: as §1
Die beigefügte Fig. 5 zeigt die Messung einer mit ^131I-TOP-(CMPEG)4 behandelten BD IX Ratte (auch hier Ovarialcarcinom). Es zeigt sich ein ähnliches Ergebnis wie das von Fig. 4.
Von der gesamten Körperaktivität an radioaktivem Jod finden sich nach 150 h etwa 23% im Tumor, etwa 12% in der Leber, etwa 5% im Blut und etwa 3-4% jeweils in den Muskeln und in der Schilddrüse. Der Rest ist natürlich, wie auch bei der Aufnahme von Fig. 4, über den restlichen Körper verteilt.

[2] = BD IX Ratte with Ovarialcarcinom, after 150 h, % of total body activity of radioactive iodine (Fig. 5)
[3] = BDIX-Ratte with Ovarialcarcinom, 42 h after injection, 300 µC, % of total labelled agent in whole body (Fig. 4)

^111-In-Tetra-(hydroxyphenoxy)-phthalocyanin-(CMPEG)4 [1c]
Konzentration des Mittels an der gewünschten Stelle, also am Tumor [1]: ≥ 30%

^131I-Tetra(hydroxyphenyl)-porphin-(CMPEG)4 [1a]
Konzentration des Mittels an der gewünschten Stelle, also am Tumor [1]: ≥ 30%
im Blut (Ovarialcarcinom; [2]): ~5%
im Tumor (Ovarialcarcinom; [2]): ~23%
in den Muskeln (Ovarialcarcinom; [2]): 3-4%
in der Leber (Ovarialcarcinom; [2]): ~12%
in der Schilddrüse (Ovarialcarcinom; [2]): 3-4%

^131J-Hydroxyphenyl-1-aminome-than-1,1-diphosphonat-Cyanurchlorid aktiviertes Polyethylenglykol (n=ca. 100 bis 110) [Beispiel 2]
Konzentration des Mittels an der gewünschten Stelle, also am Tumor [1]: ≥ 30%
Leber (Ovarialcarcinom; [3]): ca. 10%
Schilddrüse (Ovarialcarcinom; [3]): < 2%
im Tumor konzentriert (Ovarialcarcinom; [3]): ca. 30+/-2%

Reference: patent publication EP0569583B1, “[…] OF POLYETHER-S[…] AGENTS IN DIAGNOSIS AND THERAPY” (Deutsches Krebsforschungszentrum Stiftung des öffentlichen …, priority 1991, dated 1993)
